Data from patent US20140179604A1 (U S A REPRESENTED BY THE DEPARTMENT OF VETERANS AFFAIRS, published 2014).
Non-standard residues stand in square brackets, D forms with d. *: point of attachment. Desaminotyrosyl = O=C(CCc1ccc(O)cc1)*; hArg = N=C(N)NCCCC[C@H](N)C(=O)O; Agmatine = N=C(N)NCCCCN*; Nle = CCCC[C@H](N)C(=O)O; Orn = NCCC[C@H](N)C(=O)O; Abu = CC[C@H](N)C(=O)O; Aoc = NCCCCCCCC(=O)O; Ava = NCCCCC(=O)O

T1: GHRH receptor (membrane receptors of human anterior pituitary cells) (human) (UniProt Q02643)
T1 sequence (looked up): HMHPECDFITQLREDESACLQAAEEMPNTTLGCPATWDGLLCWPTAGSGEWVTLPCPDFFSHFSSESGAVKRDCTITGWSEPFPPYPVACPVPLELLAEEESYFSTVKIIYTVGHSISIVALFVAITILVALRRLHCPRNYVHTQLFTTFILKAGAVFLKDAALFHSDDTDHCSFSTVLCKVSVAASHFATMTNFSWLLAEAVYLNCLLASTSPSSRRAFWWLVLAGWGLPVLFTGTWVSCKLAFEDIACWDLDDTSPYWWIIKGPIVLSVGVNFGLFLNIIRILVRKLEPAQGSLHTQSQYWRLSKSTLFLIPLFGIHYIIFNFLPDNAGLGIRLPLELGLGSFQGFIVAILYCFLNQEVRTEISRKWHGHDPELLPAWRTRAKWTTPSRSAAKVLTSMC

T2: GHRH receptor (membrane receptors of human anterior pituitary cells) (human, UniProt Q02643 23-423)
T2 construct: whole, on cells; Native receptor in a membrane fraction of purchased normal human pituitaries, not intact cells; also called hGHRH receptor; human pituitary membrane homogenates
T2 sequence (looked up): T1 sequence (looked up)

B1: P-22327 [Dat^1, Gln^8, Orn^12, Abu^15, Orn^21, Nle^27, Asp^28, Apa^30]hGHRH(1-30)NH2 (peptide, from a related filing)
peptide: [Desaminotyrosyl]ADAIFTQSYR[Orn]VL[Abu]QLSAR[Orn]LLQDI[Nle]DR[Ava]-NH2
SMILES: CCCC[C@H](NC(=O)[C@@H](NC(=O)[C@H](CC(=O)O)NC(=O)[C@H](CCC(N)=O)NC(=O)[C@H](CC(C)C)NC(=O)[C@H](CC(C)C)NC(=O)[C@H](CCCN)NC(=O)[C@H](CCCNC(=N)N)NC(=O)[C@H](C)NC(=O)[C@H](CO)NC(=O)[C@H](CC(C)C)NC(=O)[C@H](CCC(N)=O)NC(=O)[C@H](CC)NC(=O)[C@H](CC(C)C)NC(=O)[C@@H](NC(=O)[C@H](CCCN)NC(=O)[C@H](CCCNC(=N)N)NC(=O)[C@H](Cc1ccc(O)cc1)NC(=O)[C@H](CO)NC(=O)[C@H](CCC(N)=O)NC(=O)[C@@H](NC(=O)[C@H](Cc1ccccc1)NC(=O)[C@@H](NC(=O)[C@H](C)NC(=O)[C@H](CC(=O)O)NC(=O)[C@H](C)NC(=O)CCc1ccc(O)cc1)[C@@H](C)CC)[C@@H](C)O)C(C)C)[C@@H](C)CC)C(=O)N[C@@H](CC(=O)O)C(=O)N[C@@H](CCCNC(=N)N)C(=O)NCCCCC(N)=O
B2: P-20350 [Dat^1, D-Ala^2, Gln^8, Orn^12, Abu^15, Orn^21, Nle^27, Asp^28, Agm^29]hGHRH(1-29)NH2 (peptide)
peptide: [Desaminotyrosyl][dA]DAIFTQSYR[Orn]VL[Abu]QLSAR[Orn]LLQDI[Nle]D[Agmatine]
SMILES: CCCC[C@H](NC(=O)[C@@H](NC(=O)[C@H](CC(=O)O)NC(=O)[C@H](CCC(N)=O)NC(=O)[C@H](CC(C)C)NC(=O)[C@H](CC(C)C)NC(=O)[C@H](CCCN)NC(=O)[C@H](CCCNC(=N)N)NC(=O)[C@H](C)NC(=O)[C@H](CO)NC(=O)[C@H](CC(C)C)NC(=O)[C@H](CCC(N)=O)NC(=O)[C@H](CC)NC(=O)[C@H](CC(C)C)NC(=O)[C@@H](NC(=O)[C@H](CCCN)NC(=O)[C@H](CCCNC(=N)N)NC(=O)[C@H](Cc1ccc(O)cc1)NC(=O)[C@H](CO)NC(=O)[C@H](CCC(N)=O)NC(=O)[C@@H](NC(=O)[C@H](Cc1ccccc1)NC(=O)[C@@H](NC(=O)[C@H](C)NC(=O)[C@H](CC(=O)O)NC(=O)[C@@H](C)NC(=O)CCc1ccc(O)cc1)[C@@H](C)CC)[C@@H](C)O)C(C)C)[C@@H](C)CC)C(=O)N[C@@H](CC(=O)O)C(=O)NCCCCNC(=N)N
notes: also called Peptide 20350; MR-350
B3: P-23252 [Dat^1-D-Ala^2, Orn^12, Abu^15, Orn^21, Nle^27, Asp^28, Har^30]hGHRH(1-30)NH2 (peptide)
peptide: [Desaminotyrosyl][dA]DAIFTNSYR[Orn]VL[Abu]QLSAR[Orn]LLQDI[Nle]DR[hArg]-NH2
SMILES: CCCC[C@H](NC(=O)[C@@H](NC(=O)[C@H](CC(=O)O)NC(=O)[C@H](CCC(N)=O)NC(=O)[C@H](CC(C)C)NC(=O)[C@H](CC(C)C)NC(=O)[C@H](CCCN)NC(=O)[C@H](CCCNC(=N)N)NC(=O)[C@H](C)NC(=O)[C@H](CO)NC(=O)[C@H](CC(C)C)NC(=O)[C@H](CCC(N)=O)NC(=O)[C@H](CC)NC(=O)[C@H](CC(C)C)NC(=O)[C@@H](NC(=O)[C@H](CCCN)NC(=O)[C@H](CCCNC(=N)N)NC(=O)[C@H](Cc1ccc(O)cc1)NC(=O)[C@H](CO)NC(=O)[C@H](CC(N)=O)NC(=O)[C@@H](NC(=O)[C@H](Cc1ccccc1)NC(=O)[C@@H](NC(=O)[C@H](C)NC(=O)[C@H](CC(=O)O)NC(=O)[C@@H](C)NC(=O)CCc1ccc(O)cc1)[C@@H](C)CC)[C@@H](C)O)C(C)C)[C@@H](C)CC)C(=O)N[C@@H](CC(=O)O)C(=O)N[C@@H](CCCNC(=N)N)C(=O)N[C@@H](CCCCNC(=N)N)C(N)=O
notes: also called Peptide 23252
B4: P-21304 [Dat^1, D-Ala^2, Gln^8, Orn^12, Abu^15, Orn^21, Nle^27, Asp^28, Amc^30]hGHRH(1-30)NH2 (peptide)
peptide: [Desaminotyrosyl][dA]DAIFTQSYR[Orn]VL[Abu]QLSAR[Orn]LLQDI[Nle]DR[Aoc]-NH2
SMILES: CCCC[C@H](NC(=O)[C@@H](NC(=O)[C@H](CC(=O)O)NC(=O)[C@H](CCC(N)=O)NC(=O)[C@H](CC(C)C)NC(=O)[C@H](CC(C)C)NC(=O)[C@H](CCCN)NC(=O)[C@H](CCCNC(=N)N)NC(=O)[C@H](C)NC(=O)[C@H](CO)NC(=O)[C@H](CC(C)C)NC(=O)[C@H](CCC(N)=O)NC(=O)[C@H](CC)NC(=O)[C@H](CC(C)C)NC(=O)[C@@H](NC(=O)[C@H](CCCN)NC(=O)[C@H](CCCNC(=N)N)NC(=O)[C@H](Cc1ccc(O)cc1)NC(=O)[C@H](CO)NC(=O)[C@H](CCC(N)=O)NC(=O)[C@@H](NC(=O)[C@H](Cc1ccccc1)NC(=O)[C@@H](NC(=O)[C@H](C)NC(=O)[C@H](CC(=O)O)NC(=O)[C@@H](C)NC(=O)CCc1ccc(O)cc1)[C@@H](C)CC)[C@@H](C)O)C(C)C)[C@@H](C)CC)C(=O)N[C@@H](CC(=O)O)C(=O)N[C@@H](CCCNC(=N)N)C(=O)NCCCCCCCC(N)=O
notes: also called Peptide 21304
B5: P-23254 [Dat^1, D-Ala^2, Thr^8, Orn^12, Abu^15, Orn^21, Nle^27, Asp^28, Har^30]hGHRH(1-30)NH2 (peptide)
peptide: [Desaminotyrosyl][dA]DAIFTTSYR[Orn]VL[Abu]QLSAR[Orn]LLQDI[Nle]DR[hArg]-NH2
SMILES: CCCC[C@H](NC(=O)[C@@H](NC(=O)[C@H](CC(=O)O)NC(=O)[C@H](CCC(N)=O)NC(=O)[C@H](CC(C)C)NC(=O)[C@H](CC(C)C)NC(=O)[C@H](CCCN)NC(=O)[C@H](CCCNC(=N)N)NC(=O)[C@H](C)NC(=O)[C@H](CO)NC(=O)[C@H](CC(C)C)NC(=O)[C@H](CCC(N)=O)NC(=O)[C@H](CC)NC(=O)[C@H](CC(C)C)NC(=O)[C@@H](NC(=O)[C@H](CCCN)NC(=O)[C@H](CCCNC(=N)N)NC(=O)[C@H](Cc1ccc(O)cc1)NC(=O)[C@H](CO)NC(=O)[C@@H](NC(=O)[C@@H](NC(=O)[C@H](Cc1ccccc1)NC(=O)[C@@H](NC(=O)[C@H](C)NC(=O)[C@H](CC(=O)O)NC(=O)[C@@H](C)NC(=O)CCc1ccc(O)cc1)[C@@H](C)CC)[C@@H](C)O)[C@@H](C)O)C(C)C)[C@@H](C)CC)C(=O)N[C@@H](CC(=O)O)C(=O)N[C@@H](CCCNC(=N)N)C(=O)N[C@@H](CCCCNC(=N)N)C(N)=O
notes: also called Peptide 23254
B6: P-23256 [Dat^1, D-Ala^2, Ala^8, Orn^12, Abu^15, Orn^21, Nle^27, Asp^28, Har^30]hGHRH(1-30)NH2 (peptide)
peptide: [Desaminotyrosyl][dA]DAIFTASYR[Orn]VL[Abu]QLSAR[Orn]LLQDI[Nle]DR[hArg]-NH2
SMILES: CCCC[C@H](NC(=O)[C@@H](NC(=O)[C@H](CC(=O)O)NC(=O)[C@H](CCC(N)=O)NC(=O)[C@H](CC(C)C)NC(=O)[C@H](CC(C)C)NC(=O)[C@H](CCCN)NC(=O)[C@H](CCCNC(=N)N)NC(=O)[C@H](C)NC(=O)[C@H](CO)NC(=O)[C@H](CC(C)C)NC(=O)[C@H](CCC(N)=O)NC(=O)[C@H](CC)NC(=O)[C@H](CC(C)C)NC(=O)[C@@H](NC(=O)[C@H](CCCN)NC(=O)[C@H](CCCNC(=N)N)NC(=O)[C@H](Cc1ccc(O)cc1)NC(=O)[C@H](CO)NC(=O)[C@H](C)NC(=O)[C@@H](NC(=O)[C@H](Cc1ccccc1)NC(=O)[C@@H](NC(=O)[C@H](C)NC(=O)[C@H](CC(=O)O)NC(=O)[C@@H](C)NC(=O)CCc1ccc(O)cc1)[C@@H](C)CC)[C@@H](C)O)C(C)C)[C@@H](C)CC)C(=O)N[C@@H](CC(=O)O)C(=O)N[C@@H](CCCNC(=N)N)C(=O)N[C@@H](CCCCNC(=N)N)C(N)=O
notes: also called Peptide 23256

Assays:
[1] = biological target: T1, GHRH receptor (membrane receptors of human anterior pituitary cells) (human); test: competition with 125I-[His1,Nle27]hGHRH(1-32)NH2, human pituitary membranes
[2] = biological target: T1, GHRH receptor (membrane receptors of human anterior pituitary cells) (human); test: competition with 125I-JV-1-42, human pituitary membranes
[3] = biological target: T2, GHRH receptor (membrane receptors of …); test: as above
Source text: (§1) Normal human pituitaries were purchased from the National Hormone and Peptide Program (A. F. Parlow, Los Angeles, County Harbor-UCLA Medical Center, Torrance, Calif.).

[4] = biological target: T2, GHRH receptor (membrane receptors of …); test: as above; remark: listed apart in the source
Protocol: as §1
The final binding affinities were expressed as IC₅₀ values and were calculated by using the LIGAND PC computerized curve-fitting program of Munson and Rodbard as modified by McPherson.

[5] = biological target: T2, GHRH receptor (membrane receptors of …); test: competition with [His1,125I-Tyr10,Nle27]hGHRH(1-32)NH2, human pituitary membranes
Source text: Normal human pituitaries were purchased from the National Hormone and Peptide Program (A. F. Parlow, Los Angeles, County Harbor—UCLA Medical Center, Torrance, Calif.).

| IC50 [5] | Relative affinity (Binding potency) vs GHRH [5] | Relative affinity (Binding potency) vs JI-38 [5] | other results | Binder |
| --- | --- | --- | --- | --- |
|  |  |  | IC50 [1]: 2.04 nM; Relative affinity (Binding potency) compared to JI-38 [1]: 1.34 JI-38 = 1; Relative affinity (Binding potency) compared to hGHRH(1-29) (hGHRH(1-29)NH2 = 1) [1]: 3.75; IC50 [2]: 1.99 nM; Relative affinity (Binding potency) vs JI-38 [2]: 2.18 JI-38 = 1 | B1 |
|  |  |  | IC50 [3]: 0.52 nM; Relative affinity (Binding potency) vs JI-38 [3]: 8.37 JI-38 = 1; IC50 [4]: 0.04 nM; Relative affinity (Binding potency) vs GHRH [4]: 102 GHRH(1-29) = 1; Relative affinity (Binding potency) vs JI-38 [4]: 42.7 JI-38 = 1 | B2 |
| 0.14 nM | 42.3 GHRH(1-29) = 1 | 13.9 JI-38 = 1 |  | B3 |
| 0.08 nM | 74 GHRH(1-29) = 1 | 24.4 JI-38 = 1 |  | B4 |
| 0.07 nM | 84.5 GHRH(1-29) = 1 | 27.8 JI-38 = 1 |  | B5 |
| 0.04 nM | 148 GHRH(1-29) = 1 | 48.7 JI-38 = 1 |  | B6 |
